# Measurements taken from patent publication US12202907B2, “Nucleic acids encoding and methods of producing proteins comprising antibody chains” (Innate Pharma, priority 2018, dated 2025).
# Key:
# [1] = Aggregation temperature (thermal shift stability assay); type: physicochemical; details: human IgG1 with L234A/L235E/G237A/A330S/P331S
# Procedure: Antibodies mAb1-24 and prior art anti-CD39 antibody BY40, all produced as human IgG1 isotypes with L234A/L235E/G237A/A330S/P331S substitutions were tested for stability in the following reference formulation at a concentration of approximatively 7 mg/mL: pH 6.0; histidine buffer (10 mM); sucrose (200 mM); NaCl (50 mM); Polysorbate 80 (PS80) (0.2 g/L). The stability of the formulations was monitored in two storage conditions (at +5° C.±3° C. and at +40±3° C. For each study, 3 time points were performed: T0, T15D (15 days) and T1M (1 month). A freeze thaw (F/T) and a thermal shift stability assay (TSSA) were conducted for the format comparison. To perform F/T cycles, the samples were frozen at least 2 hours at −20° C. and thawed at least 1 hour at room temperature, the F/T cycle is repeated three times and samples are tested 24 h after the last Freeze/Thaw cycle. At each time point, the following tests were performed: • Particulate Matter (MFI) • Visual Inspection (Appearance) • Impurities (SE-HPLC) • Turbidity (400 nm) • Protein Concentration (280 nm) (performed with Nanodrop, Thermo Fisher Scientific Inc.)
# [2] = target: T1, Human CD39-L1 (NTPDase2, ENTPD2) (Homo sapiens, UniProt Q9Y5L3); experiment: ELISA titration on CD39-L1; type: binding
# T1 sequence (Q9Y5L3 1-472 isoform Q9Y5L3-2): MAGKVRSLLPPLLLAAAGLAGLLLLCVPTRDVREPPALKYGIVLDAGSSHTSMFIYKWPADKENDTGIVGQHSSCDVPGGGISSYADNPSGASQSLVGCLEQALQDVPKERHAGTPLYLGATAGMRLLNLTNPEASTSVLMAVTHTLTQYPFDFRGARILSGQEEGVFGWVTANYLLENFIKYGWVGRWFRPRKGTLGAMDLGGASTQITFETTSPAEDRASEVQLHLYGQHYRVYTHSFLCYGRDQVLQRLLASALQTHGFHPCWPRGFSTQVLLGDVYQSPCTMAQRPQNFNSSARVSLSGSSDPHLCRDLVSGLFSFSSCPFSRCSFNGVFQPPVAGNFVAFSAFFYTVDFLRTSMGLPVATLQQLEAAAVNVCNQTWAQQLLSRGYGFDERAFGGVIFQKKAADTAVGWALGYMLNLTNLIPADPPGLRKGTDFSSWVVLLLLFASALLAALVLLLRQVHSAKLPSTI
# Procedure: Antibody I-394 was tested for binding to recombinant human CD39 isoforms (Rec-huCD39 isoforms) having amino acid sequences shown below were coated in 96-well plate in PBS 1X at 500 ng/ml or 1 μg/ml at 4° C. overnight. Wells were washed in TBS Tween® 20 (polysorbate 20), and further saturated 2H at RT in TBS Blocking buffer. Dose range concentration of primary antibody was incubated in TBS blocking buffer for 2 h at RT. Wells were washed in TBS Tween® 20 (polysorbate 20). […] Optical density was measured on Enspire™ at OD=450.
# allogenic CD4 T cells = experiment: Mixed lymphocytes reaction (MLR) with ATP-activated DC; type: cell-based, human; details: MoDC activated in presence of ATP and antibody
# Procedure: Briefly, human monocytes were purified from human healthy blood and differentiated into MoDC in presence of GM-CSF and IL-4 during 6 days. Then MoDC were activated in presence of ATP (Sigma, 0.25-1 mM) during 24 hours and DC activation were assessed by analyzing CD80, CD83 and HLA-DR expression by flow cytometry. In some cases, MoDC were preincubated for 1 hour in presence of CD39 inhibitor: […] (Tocris, 250 μM), CD73 inhibitor: APCP (Tocris 50 μM), anti-CD39 blocking antibody I-394 or BY40 (for BY40 see WO2009/095478), or anti-CD73 blocking antibodies. LPS (Invivogen, 10 ng/ml) was used as positive control. To assess resulting effect of ATP-mediated DC activation on CD4 T cells activation, ATP-activated DC were washed and then incubated with allogenic CD4 T cells (ratio 1 MoDC/4 T cells) for a mixed lymphocytes reaction (MLR) during 5 days. T cells activation and proliferation were analyzed through CD25 expression and Cell Trace Violet dilution by flow cytometry (FIG. 8).
# Antibodies were tested to assess their efficacy in reducing T cell suppression in the assay described in Example 12. […] T cells activation and proliferation were analyzed through CD25 expression and Cell Trace Violet dilution by flow cytometry.
# [3] = target: T2, human Ramos lymphoma cells (CD39) (Homo sapiens, UniProt P49961); experiment: Antibody titration on Ramos cells by flow cytometry; type: binding; details: qualitative
# T2 construct: cells that endogenously express CD39 at their surface; host or cells: Ramos
# T2 sequence (P49961 1-510): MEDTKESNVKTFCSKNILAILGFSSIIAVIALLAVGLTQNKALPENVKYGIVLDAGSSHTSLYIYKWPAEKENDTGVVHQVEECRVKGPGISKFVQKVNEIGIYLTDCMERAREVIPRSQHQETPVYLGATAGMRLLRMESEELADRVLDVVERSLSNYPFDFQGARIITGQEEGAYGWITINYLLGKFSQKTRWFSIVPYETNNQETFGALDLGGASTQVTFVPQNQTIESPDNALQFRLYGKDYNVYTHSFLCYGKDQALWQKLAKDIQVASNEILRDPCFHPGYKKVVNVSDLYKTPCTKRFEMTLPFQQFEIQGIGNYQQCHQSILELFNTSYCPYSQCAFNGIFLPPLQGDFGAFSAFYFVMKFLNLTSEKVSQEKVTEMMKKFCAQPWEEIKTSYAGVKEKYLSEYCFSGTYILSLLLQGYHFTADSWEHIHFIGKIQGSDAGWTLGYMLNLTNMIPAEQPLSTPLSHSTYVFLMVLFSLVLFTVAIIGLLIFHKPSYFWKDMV
# Procedure: Antibody I-394 was tested in two repeated experiments for binding to CHO cells expressing human CD39, CHO cells expressing cynomolgus (Macaca fascicularis) CD39, CHO cells expressing murine CD39, and human Ramos lymphoma cells (ATCC™, reference CRL-1596). Cells were incubated with various concentration of unlabeled anti-CD39 antibody from 30 μg/ml to 5×10^−4 μg/ml, for 30 minutes at 4° C. After washes, cells were incubated with Goat anti-mouse H+L labeled secondary antibody for 30 min at 4° C.
substance,measurement,setting,value
"I-394: anti-CD39 antibody, VH SEQ ID NO: 6, VL SEQ ID NO: 7, human IgG1 Fc with L234A/L235E/G237A/A330S/P331S",Aggregation temperature (TAgg),[1],~70 °C
same,binding to CD39-L1 in ELISA,[2],"not to any of the isoforms CD39-L1, -L2, -L3 or -L4"
same,"T cells proliferation and activation in MLR (CD25, Cell Trace Violet dilution)",allogenic CD4 T cells,resulted in higher T cells proliferation and activation
same,binding to Ramos lymphoma cells,[3],bound
